# Data: doi:10.1101/432138
# Molecular target: P02671
# Assay: SEC-MALS
protein,measurement,value
Fib1 fibrinogen (protein) chain 1: GPRVVERHQSACKDSDWPFCSDEDWNYKCPSGCRMKGLIDEVNQDFTNRINKLKNSLFEYQKNNKDSHSLTTNIMEILRGDFSSANNRDNTYNRVSEDLRSRIEVLKRKVIEKVQHIQLLQKNVRAQLVDMKRLEVDIDIKIRSCRGSCSRALAREVDLKDYEDQQKQLEQVIAKDLLPSRDRQHLPLIKMKPVPDLVPGNFKSQLQKVPPEWKALTDMPQMRMELERPGGNEITRGGSTSYGTGSETESPRNPSSAGSWNSGSSGPGSTGNRNPGSSGTGGTATWKPGSSGPGSTGSWNSGSSGTGSTGNQNPGSPRPGSTGTWNPGSSERGSAGHWTSESSVSGSTGQWHSESGSFRPDSPGSGNARPNNPDWGTFEEVSGNVSPGTRREYHTEKLVTSKGDKELRTGKEKVTSGSTTTTRRSCSKTVTKTVIGPDGHKEVTKEVVTSEDGSDCPEAMDLGTLSGIGTLDGFRHRHPDEAAFFDTASTGKTFPGFFSPMLGEFVSETESRGSESGIFTNTKESSSHHPGIAEFPSRGKSSSYSKQFTSSTSYNRGDSTFESKSYKMADEAGSEADHEGTHSTKRGHAKSRPVRDCDDVLQTHPSGTQSGIFNIKLPGSSKIFSVYCDQETSLGGWLLIQQRMDGSLNFNRTWQDYKRGFGSLNDEGEGEFWLGNDYLHLLTQRGSVLRVELEDWAGNEAYAEYHFRVGSEAEGYALQVSSYEGTAGDALIEGSVEEGAEYTSHNNMQFSTFDRDADQWEENCAEVYGGGWWYNNCQAANLNGIYYPGGSYDPRNNSPYEIENGVVWVSFRGADYSLRAVRMKIRPLVTQ chain 2: GHRPLDKKREEAPSLRPAPPPISGGGYRARPAKAAATQKKVERKAPDAGGCLHADPDLGVLCPTGCQLQEALLQQERPIRNSVDELNNNVEAVSQTSSSSFQYMYLLKDLWQKRQKQVKDNENVVNEYSSELEKHQLYIDETVNSNIPTNLRVLRSILENLRSKIQKLESDVSAQMEYCRTPCTVSCNIPVVSGKECEEIIRKGGETSEMYLIQPDSSVKPYRVYCDMNTENGGWTVIQNRQDGSVDFGRKWDPYKQGFGNVATNTDGKNYCGLPGEYWLGNDKISQLTRMGPTELLIEMEDWKGDKVKAHYGGFTVQNEANKYQISVNKYRGTAGNALMDGASQLMGENRTMTIHNGMFFSTYDRDNDGWLTSDPRKQCSKEDGGGWWYNRCHAANPNGRYYWGGQYTWDMAKHGTDDGVVWMNWKGSWYSMRKMSMKIRPFFPQQ chain 3: YVATRDNCCILDERFGSYCPTTCGIADFLSTYQTKVDKDLQSLEDILHQVENKTSEVKQLIKAIQLTYNPDESSKPNMIDAATLKSRKMLEEIMKYEASILTHDSSIRYLQEIYNSNNQKIVNLKEKVAQLEAQCQEPCKDTVQIHDITGKDCQDIANKGAKQSGLYFIKPLKANQQFLVYCEIDGSGNGWTVFQKRLDGSVDFKKNWIQYKEGFGHLSPTGTTEFWLGNEKIHLISTQSAIPYALRVELEDWNGRTSTADYAMFKVGPEADKYRLTYAYFAGGDAGDAFDGFDFGDDPSDKFFTSHNGMQFSTWDNDNDKFEGNCAEQDGSGWWMNKCHAGHLNGVYYQGGTYSKASTPNGYDNGIIWATWKTRWYSMKKTTMKIIPFNRLTIGEGQQHHLGGAKQVRPEHPAETEYDSLYPEDDL,relative mass of the aggregates,about 4% of the total mass of fibrinogen
